Test results as given in article doi:10.1101/2024.05.17.594671, “Mechanism of TAX1BP1 recruitment in aggrephagy to switch from cargo collection to sequestration” (bioRxiv, 2024).

Key:
Conditions in all cases: both partners purified
[1] = biological target: T1, GFP-NBR1 (recombinant, purified) (UniProt Q14596 1-966); assay: microscopy-based protein-protein interaction assay (beads); 2.5 µM GST-TAX1BP1 (FL, domain, truncations, point mutants) as bait on GST beads; 1 µM GFP-NBR1 as prey; 25 mM HEPES pH 7.5, 150 mM NaCl, 1 mM DTT; 15-30 min at RT; confocal imaging
T1 construct: NBR1; source: HEK293 (pCAGGSsH-C vector, VBCF ProTech facility), purified as described previously; not shown: GFP, N-terminal, kept
T1 sequence (looked up): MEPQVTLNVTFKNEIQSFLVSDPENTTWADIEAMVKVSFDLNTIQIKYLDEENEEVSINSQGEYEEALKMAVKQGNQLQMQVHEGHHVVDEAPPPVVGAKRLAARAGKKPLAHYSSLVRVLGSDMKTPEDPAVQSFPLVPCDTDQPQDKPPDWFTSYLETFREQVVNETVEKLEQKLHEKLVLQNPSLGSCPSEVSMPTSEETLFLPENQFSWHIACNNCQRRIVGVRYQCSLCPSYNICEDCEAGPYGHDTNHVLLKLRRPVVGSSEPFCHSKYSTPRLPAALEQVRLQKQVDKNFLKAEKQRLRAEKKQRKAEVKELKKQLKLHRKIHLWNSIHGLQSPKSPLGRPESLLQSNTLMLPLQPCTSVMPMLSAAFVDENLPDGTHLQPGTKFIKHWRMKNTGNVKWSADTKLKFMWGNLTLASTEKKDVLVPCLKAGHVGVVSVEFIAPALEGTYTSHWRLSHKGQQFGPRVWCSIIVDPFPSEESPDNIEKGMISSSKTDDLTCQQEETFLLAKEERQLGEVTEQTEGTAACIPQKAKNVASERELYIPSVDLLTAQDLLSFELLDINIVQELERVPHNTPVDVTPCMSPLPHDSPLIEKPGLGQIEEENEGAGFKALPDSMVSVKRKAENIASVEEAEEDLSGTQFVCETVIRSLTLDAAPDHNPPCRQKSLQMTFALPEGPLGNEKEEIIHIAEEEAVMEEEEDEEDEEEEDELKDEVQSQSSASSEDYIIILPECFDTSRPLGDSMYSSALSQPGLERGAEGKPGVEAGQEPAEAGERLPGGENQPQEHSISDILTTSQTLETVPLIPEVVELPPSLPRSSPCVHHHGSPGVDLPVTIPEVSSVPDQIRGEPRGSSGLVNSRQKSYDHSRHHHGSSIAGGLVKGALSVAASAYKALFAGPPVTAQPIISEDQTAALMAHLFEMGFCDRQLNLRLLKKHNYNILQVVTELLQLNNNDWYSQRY

[2] = biological target: T2, NBR1 (untagged, recombinant) (UniProt Q14596 1-966); assay: in vitro condensation assay (recruitment to p62 condensates, microscopy); 2 µM mCherry-p62 S403E, 1 µM NBR1 (or without NBR1), 2 µM GFP-TAX1BP1 (FL, ΔN or ΔZnF; N domain) in 25 mM HEPES pH 7.5, 150 mM NaCl, 1 mM DTT; condensation triggered with 5 µM GST-4xUB; spinning disk microscopy
T2 construct: NBR1; source: HEK293 (pCAGGSsH-C vector, VBCF ProTech facility), purified as described previously
T2 sequence (looked up): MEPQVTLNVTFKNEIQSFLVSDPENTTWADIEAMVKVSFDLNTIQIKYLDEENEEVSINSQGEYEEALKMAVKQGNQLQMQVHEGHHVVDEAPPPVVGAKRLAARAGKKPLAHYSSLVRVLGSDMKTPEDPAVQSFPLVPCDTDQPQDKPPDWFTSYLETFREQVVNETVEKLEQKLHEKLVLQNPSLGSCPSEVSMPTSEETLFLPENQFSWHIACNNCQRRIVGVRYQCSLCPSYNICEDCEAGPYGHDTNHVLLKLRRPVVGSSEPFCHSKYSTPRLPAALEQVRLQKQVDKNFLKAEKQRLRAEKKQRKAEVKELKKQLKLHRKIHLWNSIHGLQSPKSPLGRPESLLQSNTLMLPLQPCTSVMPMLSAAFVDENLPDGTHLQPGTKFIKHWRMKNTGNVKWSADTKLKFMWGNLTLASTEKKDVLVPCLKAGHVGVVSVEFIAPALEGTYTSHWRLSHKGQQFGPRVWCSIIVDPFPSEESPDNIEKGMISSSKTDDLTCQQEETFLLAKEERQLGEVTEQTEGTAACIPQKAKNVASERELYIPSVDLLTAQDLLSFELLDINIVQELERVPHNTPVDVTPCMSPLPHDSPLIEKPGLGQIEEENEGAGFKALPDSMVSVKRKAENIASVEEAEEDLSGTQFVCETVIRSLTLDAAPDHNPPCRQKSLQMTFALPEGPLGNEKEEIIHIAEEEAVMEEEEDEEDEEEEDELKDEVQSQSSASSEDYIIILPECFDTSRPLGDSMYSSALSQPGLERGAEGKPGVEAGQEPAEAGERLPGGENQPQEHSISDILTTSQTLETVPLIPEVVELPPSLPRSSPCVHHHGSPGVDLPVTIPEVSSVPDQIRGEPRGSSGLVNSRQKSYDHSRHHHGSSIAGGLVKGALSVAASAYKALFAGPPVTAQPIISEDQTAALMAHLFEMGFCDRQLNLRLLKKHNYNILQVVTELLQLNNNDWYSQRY

[3] = biological target: T3, 10x-His-mCherry-TAX1BP1 (full length, FL) (UniProt Q86VP1 1-789); assay: microscopy-based protein-protein interaction assay (beads); mCherry-TAX1BP1 FL or ΔN on RFP-trap beads; GFP tagged NBR1 fragment CC2-LIR1 as prey
T3 construct: TAX1BP1, full length (FL); also called mCh-TAX1BP1; mCherry-TAX1BP1 FL; source: Sf9 insect cells (pLIB vector, baculovirus), purified as described previously; not shown: mCherry, N-terminal, kept
T3 sequence (Q86VP1 whole entry, the tested form may be a part): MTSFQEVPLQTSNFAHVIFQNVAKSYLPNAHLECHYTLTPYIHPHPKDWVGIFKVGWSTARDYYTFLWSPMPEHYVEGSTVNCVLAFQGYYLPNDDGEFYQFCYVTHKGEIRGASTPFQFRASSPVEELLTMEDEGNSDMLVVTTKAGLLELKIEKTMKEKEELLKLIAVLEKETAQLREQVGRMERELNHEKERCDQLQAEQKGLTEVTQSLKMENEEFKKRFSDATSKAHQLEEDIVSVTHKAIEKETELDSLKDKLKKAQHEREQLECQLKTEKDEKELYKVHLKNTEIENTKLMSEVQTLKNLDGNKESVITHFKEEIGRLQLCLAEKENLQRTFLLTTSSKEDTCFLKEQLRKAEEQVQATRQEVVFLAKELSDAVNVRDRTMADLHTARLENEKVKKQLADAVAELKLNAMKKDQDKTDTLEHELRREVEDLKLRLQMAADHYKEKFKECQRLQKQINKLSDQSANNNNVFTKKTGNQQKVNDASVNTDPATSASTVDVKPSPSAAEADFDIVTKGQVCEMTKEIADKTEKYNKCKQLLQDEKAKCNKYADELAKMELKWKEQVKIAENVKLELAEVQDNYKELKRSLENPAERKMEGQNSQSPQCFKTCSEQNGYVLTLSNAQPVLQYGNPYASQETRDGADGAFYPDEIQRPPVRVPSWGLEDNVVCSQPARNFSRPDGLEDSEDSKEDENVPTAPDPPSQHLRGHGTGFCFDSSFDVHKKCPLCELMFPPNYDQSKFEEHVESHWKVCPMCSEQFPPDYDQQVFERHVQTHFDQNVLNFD

B1: GST-N domain (aa420-506 of TAX1BP1) (domain or fragment, UniProt Q86VP1 420-506, looked up)
chain: DQDKTDTLEHELRREVEDLKLRLQMAADHYKEKFKECQRLQKQINKLSDQSANNNNVFTKKTGNQQKVNDASVNTDPATSASTVDVK
**Q.** Does B1 bind [1]?
**A.** binds

B2: GFP-N-domain (aa420-506 of TAX1BP1) (domain or fragment, UniProt Q86VP1 420-506, looked up)
chain: DQDKTDTLEHELRREVEDLKLRLQMAADHYKEKFKECQRLQKQINKLSDQSANNNNVFTKKTGNQQKVNDASVNTDPATSASTVDVK
notes: TAX1BP1 N-domain, aa420-506; Cloned into pGEX-4T1; the methods name the purified protein GFP-N domain and give elution either by TEV cleavage or by glutathione; also called N-domain alone; isolated N-domain; source: E. coli Rosetta (pGEX-4T1), purified (GST beads, SEC); not shown: GFP, N-terminal, kept
**Q.** Does B2 bind [2]?
**A.** binds

B3: GFP-CC2-LIR1 (NBR1 aa685 - aa757) (domain or fragment, UniProt Q14596 685-757, looked up)
chain: LGNEKEEIIHIAEEEAVMEEEEDEEDEEEEDELKDEVQSQSSASSEDYIIILPECFDTSRPLGDSMYSSALSQ
notes: NBR1 fragment CC2-LIR1, aa685-757; The methods name the purified protein GST-GFP-CC2-LIR1 and give elution either by TEV cleavage or by glutathione; also called GST-GFP-CC2-LIR1; GFP tagged NBR1 fragment (CC2-LIR2); source: E. coli Rosetta (pGEX-4T1), purified (GST beads, SEC); not shown: GFP, N-terminal, kept
**Q.** Does B3 bind [3]?
**A.** binds
